“Also recorded” adds a separate entry of the source.
B1: His-MP7: heptapeptide fusion protein, SEQ ID NO: 15: elf18, csp22, flg22, flgII-28, nlp20, pep1, pip1 in sequence, linkers GAG and AGA, HIS tag (protein)
chain: MGSSHHHHHHSSGLVPRGSHMASMTGGQQMGRDPNSSSVDKLSKEKFERTKPHVNVGTIGGAGAVGTVKWFNAEKGFGFITPDDGAGAQRLSTGSRINSAKDDAAGLQIAGAGESTNILQRMRELAVQSRNDSNSATDREAGAGAIMYSWYFPKDSPVTGLGHRAGAATKVKAKQRGKEKVSSGRPGQHNAGARLASGPSPRGRGH
modifications: his-MP7

How the values were obtained:
[1] = test system: callose accumulation of Arabidopsis; assay: Intensity of immune responses of various fusion proteins: callose fluorescence in Arabidopsis leaves quantified by ImageJ; type: in vivo; conditions: 100 nmol final concentration
Method: Computation was conducted through image processing software ImageJ according to obtained callose accumulation fluorescence images, and the immune activation ability of the fusion proteins to the plants was quantified by virtue of the fluorescence intensity. Computing methods were as follows:
Measured IntDen=Integrated Density=Integrated Optical Density;
Measured Area=Image Area;
MD(mean optical density)=IntDen/Area.

[2] = test system: callose accumulation of Arabidopsis; assay: Callose accumulation in Arabidopsis leaves infiltrated with fusion protein or PAMP polypeptide (aniline blue staining); type: in vivo
Method: In immune responses of plant cells, callose might accumulate. The callose might enhance the mechanical strength of plant cell walls and block channels through which pathogens spread between the cells, thereby limiting invasion of pathogenic microorganisms. With a model plant Arabidopsis as a material and callose accumulation as immune index, the immune activation abilities of different concentrations of fusion proteins His-MP7 were analyzed and were compared to that of a single PAMP polypeptide. A specific experimental operation was as follows:
Final concentrations of the fusion protein His-MP7 and a polypeptide flg22 were adjusted to be 1 μM, 100 nM and 10 nM respectively, with water being served as a control. Four-week old Arabidopsis leaves were infiltrated with an injection syringe permeation method for 12 h, the treated leaves were collected and put in a 6-well plate, and a suitable amount of washing buffer was added for 4 h incubation. The washing buffer was substituted by an aniline blue staining solution with a final concentration of 0.1 mg/mL for staining at a room temperature in the dark for 1 h, and the callose accumulation was observed using a 10 times objective lens of a fluorescence microscope. Each treatment contained three biological replicates with three repeated experiments.
A final concentration of the fusion protein His-MP7 and each of polypeptides flg22, nlp20, elf18, pip1, pep1, csp22 and flgII-28 was adjusted to be 100 nM, with csp22 and flgII-28 being served as negative controls. The four-week old Arabidopsis leaves were infiltrated with an injection syringe permeation method; and a sample treatment method was the same as mentioned above.

[3] = test system: oxidative burst immune response in corn leaves; assay: Reactive oxygen species / oxidative burst in corn leaves (DAB staining); type: in vivo; conditions: 100 nM, corn leaves soaked 48 h, FIG. 4
Method: Oxidative burst was considered as one of earliest responses of plants to pathogenic microorganisms and played an important role in defense responses of the plants. […] After the plants were infected by the pathogenic microorganisms, the reactive oxygen species could be produced and accumulate, and oxidative burst could be caused. With plant corns as a material and the reactive oxygen species as an immune index, the immune activation ability of 100 nM fusion protein His-MP7 was analyzed. A specific experimental operation was as follows:
Two-week old corn leaves were taken, the intermediate portion of each leaf was taken, shorn with a length of 5 cm and immersed into 1 μg/mL auxin 6BA solution. It was added with the fusion protein His-MP7 with a final concentration of 100 nM, with an aqueous solution of auxin 6BA being served as a blank control. The intermediate portions were soaked for 48 h, stained for 12 h using 1 mg/mL DAB solution, eluted for 12 h by a washing buffer (ethyl alcohol:acetic acid:glycerin=3:1:1) and observed after being placed for 30 min.

Magaporthe grisea = type: in vivo; conditions: rice leaves, 100 nM
[4] = test system: Pseudomonas syringae DC3000; assay: Resistance of Arabidopsis to DC3000 pathogenic bacteria (colony growth in injected leaves)
Method: (1) A strain DC3000 of Pseudomonas syringae was inoculated to 20 mL of SOC+str (streptomycin) liquid medium for overnight culture for 14-16 h at 28° C., OD600 was determined, and a product was subjected to gradient dilution until OD600 was 0.00005 to obtain a bacterial solution.
(2) The fusion protein His-MP7 was added in the bacterial solution until a final concentration was 100 nM, and a bacterial solution, to which water was added, was served as a control. Meanwhile, four-week old healthy Arabidopsis leaves were injected with the bacterial solution and were sampled at Day 0 (four leaves from one plant) and Day 3 (five plants, two leaves from each plant) respectively. Each leaf was punched by a puncher. The punched small discs were taken; 500 μL of 10 mM MgCl2 was added at Day 0; the small discs were ground in a 1.5 mL EP tube; and 50 μL of each of four samples in the same treatment was spotted on one SOC+str (streptomycin) solid plate (the plate required to be blow-dried, and then the shape of each spotted sample could be kept) and cultured for 16-24 h at 28° C. Samples were photographed and observed for statistics of colony growth.
(3) At Day 3, the two leaves on each plant of the five plants were punched to take small discs similarly; 250 μL of 10 mM MgCl2 was added; and the small discs were ground in the 1.5 mL EP tube and diluted by MgCl2 stepwise until 1×10^−5.

[5] = test system: Tobacco mosaic virus (TMV); assay: Resistance of tobacco plants to Tobacco mosaic virus (disease grading, disease index, control effect)
Method: The experiment was divided into an experimental group and a control group (with 20 lines of tobacco plants in each group). After the experimental group was injected with a recombinant protein, viruses were inoculated to the experimental group; and after the control group was injected with the sterile water, the viruses were inoculated to the control group. It was inoculated through the following steps:
(1) Fresh leaves infected with TMV were added to a small amount of sterilized phosphate buffer (1:200) and were ground in a mortar and filtered with sterilized gauze to remove the residues of the infected leaves. The above fresh juice was prepared as an inoculum and a concentration of the inoculum of the TMV was adjusted to obtain an aqueous solution of TMV.
(2) When tobacco seedlings were in the 4-5 true leaves period, fully expanded true leaves were selected; a suitable amount of quartz sands were uniformly scattered on the leaf surfaces; and the leaf surfaces were slightly rubbed by an absorbent ball dipped with the aqueous solution of TMV for 1-2 times and then immediately washed with water.
(3) After inoculation for 21 days, the morbidity of tobacco plants was observed. With each plant as a unit for assessment, the grading standard was as follows:
Grade 0: freedom from disease
Grade 3: newborn leaf had yellow-green stripes parallel to the leaf vein with slightly curling;
Grade 7: plant was dwarfed, leaf had yellowish-white strips with curling, and newborn leaves were twisted and prolapsed and could not be normally expanded; and
Grade 9: plant was dwarfed seriously and subjected to chlorina or died.
A disease index and the control effect were computed with the following methods:
Disease index=[Σ(number of infected plants in various grades×relative grade value)/(total number of plants investigated×9)]×100;
Control effect (%)=[(control disease index-treatment disease index)/control disease index]×100.

[6] = 21 days after TMV inoculation, 20 plants per group

| Molecule | MD (mean optical density = IntDen/Area) of callose fluorescence ([1]; H2O 0.002-0.003) | Immune activation ([1]; H2O: No) | intensity of callose accumulation compared with flg22 ([2]; 100 nM His-MP7 versus 1 μM flg22, FIG. 2) | callose accumulation of Arabidopsis ([2]; 100 nM, leaf infiltration 12 h, FIG. 2) | immune activity effect compared with single PAMP polypeptides (callose accumulation) ([2]; all at 100 nM, flg22, nlp20, elf18, pip1, pep1, csp22, flgII-28, FIG. 3) | induction of oxidative burst immune response [3] | scab area percentage (Magaporthe grisea; 3-4 days, untreated 11.6%) [%] | infection rate of Magaporthe grisea lowered by (Magaporthe grisea; versus untreated) [%] | bacterium growth index ([4]; 100 nM in bacterial solution, Arabidopsis leaves, FIG. 5, control 5.38) | reduction of growth amount of Pseudomonas syringae DC3000 ([4]; 100 nM, versus water control) | Number of Infect Tobacco Plants, 0 grade [5, 6] [plant] | Number of Infect Tobacco Plants, 1 grade [5, 6] [plant] | Number of Infect Tobacco Plants, 3 grade [5, 6] [plant] | Number of Infect Tobacco Plants, 5 grade [5, 6] [plant] | Number of Infect Tobacco Plants, 7 grade [5, 6] [plant] | Number of Infect Tobacco Plants, 9 grade [5, 6] [plant] | Control effect ([5]; tobacco, TMV, 21 days, versus H2O control) [%] | Disease index ([5]; tobacco, TMV, 21 days, H2O control 78.9) |
| --- | --- | --- | --- | --- | --- | --- | --- | --- | --- | --- | --- | --- | --- | --- | --- | --- | --- | --- |
| TP10 | 0.378 | Yes | – | – | – | – | – | – | – | – | – | – | – | – | – | – | – | – |
| B1 | – | – | equivalent to that induced by 1 μM PAMP polypeptide flg22 | obviously induced | superior to those of all the PAMP polypeptides; also recorded: superior to that of a single PAMP polypeptide | could induce the oxidative burst immune response | 1.9 | 83.6 | 4.05 | ≥ 10 | 1 | 11 | 6 | 2 | 0 | 0 | 72.5 | 21.7 |

Source: patent US20230036503A1, “Fusion Protein, Amino Acid Sequence Thereof, Coding Nucleotide Sequence Thereof, Preparation Method Thereof and Use Thereof” (priority 2019, published 2023)
